# Measurements reported in patent US20220372155A1 (LYVGEN BIOPHARMA, published 2022).
# T1: human B7H4 expressed on CHO cells (human, UniProt Q7Z7D3 25-282)
# T1 construct: whole, on cells; also called VCTN1
# T1 sequence (looked up): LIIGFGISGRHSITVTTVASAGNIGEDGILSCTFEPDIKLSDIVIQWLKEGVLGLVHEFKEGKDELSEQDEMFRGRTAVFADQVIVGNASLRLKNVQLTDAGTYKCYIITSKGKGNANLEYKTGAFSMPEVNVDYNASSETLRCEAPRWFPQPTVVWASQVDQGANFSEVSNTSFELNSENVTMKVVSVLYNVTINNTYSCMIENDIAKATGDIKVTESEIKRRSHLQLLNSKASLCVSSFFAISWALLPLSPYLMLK
# B1: Ly342 (bispecific antibody, human IgG1, kappa)
# heavy: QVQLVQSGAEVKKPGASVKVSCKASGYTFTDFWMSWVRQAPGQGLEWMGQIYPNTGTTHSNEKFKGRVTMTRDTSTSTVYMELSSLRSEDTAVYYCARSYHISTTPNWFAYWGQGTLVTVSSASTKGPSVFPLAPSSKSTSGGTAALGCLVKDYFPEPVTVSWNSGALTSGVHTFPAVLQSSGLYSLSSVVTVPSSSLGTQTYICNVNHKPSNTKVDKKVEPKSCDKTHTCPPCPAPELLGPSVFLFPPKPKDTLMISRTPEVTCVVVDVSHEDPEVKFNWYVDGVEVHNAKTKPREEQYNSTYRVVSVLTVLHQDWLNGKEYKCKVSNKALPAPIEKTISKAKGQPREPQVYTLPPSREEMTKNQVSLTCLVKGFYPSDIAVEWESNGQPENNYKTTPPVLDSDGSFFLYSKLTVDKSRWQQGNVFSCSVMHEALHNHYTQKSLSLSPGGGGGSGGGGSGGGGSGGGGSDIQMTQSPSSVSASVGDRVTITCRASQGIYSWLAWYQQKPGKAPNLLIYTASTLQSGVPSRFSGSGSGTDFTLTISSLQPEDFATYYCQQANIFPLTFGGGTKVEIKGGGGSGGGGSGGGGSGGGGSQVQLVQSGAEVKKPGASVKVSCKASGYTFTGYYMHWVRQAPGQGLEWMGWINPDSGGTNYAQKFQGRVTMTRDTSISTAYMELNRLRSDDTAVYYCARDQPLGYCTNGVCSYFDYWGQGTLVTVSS
# light: DIQMTQSPSSLSASVGDRVTITCKASQNVYKKLEWYQQKPGKVPKVLIYHTNILQTGVPSRFSGSGSGTDYTLTISSLQPEDVATYYCYQWNSGPTFGGGTKVEIKRTVAAPSVFIFPPSDEQLKSGTASVVCLLNNFYPREAKVQWKVDNALQSGNSQESVTEQDSKDSTYSLSSTLTLSKADYEKHKVYACEVTHQGLSSPVTKSFNRGEC
# notes: Ly076 HC (IgG1 mutated Fc)-Ly253 scFv VL-VH + Ly076 LC
# B2: Ly343 (bispecific antibody, human IgG1, kappa)
# heavy: QVQLVQSGAEVKKPGASVKVSCKASGYTFTDFWMSWVRQAPGQGLEWMGQIYPNTGTTHSNEKFKGRVTMTRDTSTSTVYMELSSLRSEDTAVYYCARSYHISTTPNWFAYWGQGTLVTVSSASTKGPSVFPLAPSSKSTSGGTAALGCLVKDYFPEPVTVSWNSGALTSGVHTFPAVLQSSGLYSLSSVVTVPSSSLGTQTYICNVNHKPSNTKVDKKVEPKSCDKTHTCPPCPAPELLGPSVFLFPPKPKDTLMISRTPEVTCVVVDVSHEDPEVKFNWYVDGVEVHNAKTKPREEQYNSTYRVVSVLTVLHQDWLNGKEYKCKVSNKALPAPIEKTISKAKGQPREPQVYTLPPSREEMTKNQVSLTCLVKGFYPSDIAVEWESNGQPENNYKTTPPVLDSDGSFFLYSKLTVDKSRWQQGNVFSCSVMHEALHNHYTQKSLSLSPG
# light: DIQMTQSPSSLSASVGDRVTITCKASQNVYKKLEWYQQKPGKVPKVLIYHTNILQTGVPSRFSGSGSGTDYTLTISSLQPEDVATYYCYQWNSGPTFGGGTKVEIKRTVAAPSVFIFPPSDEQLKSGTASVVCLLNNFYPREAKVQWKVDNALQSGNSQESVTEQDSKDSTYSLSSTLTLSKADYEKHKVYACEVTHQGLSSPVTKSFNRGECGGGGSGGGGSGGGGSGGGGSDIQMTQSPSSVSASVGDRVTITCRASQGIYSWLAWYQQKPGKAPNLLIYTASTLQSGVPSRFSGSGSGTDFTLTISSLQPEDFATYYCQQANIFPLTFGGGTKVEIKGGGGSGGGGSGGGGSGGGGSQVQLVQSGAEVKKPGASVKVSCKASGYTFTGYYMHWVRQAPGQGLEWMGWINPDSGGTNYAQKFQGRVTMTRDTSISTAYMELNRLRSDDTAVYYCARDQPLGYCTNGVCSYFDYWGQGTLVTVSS
# notes: Ly076 HC (IgG1 mutated Fc) + Ly076 LC-Ly253 scFv VL-VH
# B3: Ly344 (bispecific antibody, human IgG1, kappa)
# heavy: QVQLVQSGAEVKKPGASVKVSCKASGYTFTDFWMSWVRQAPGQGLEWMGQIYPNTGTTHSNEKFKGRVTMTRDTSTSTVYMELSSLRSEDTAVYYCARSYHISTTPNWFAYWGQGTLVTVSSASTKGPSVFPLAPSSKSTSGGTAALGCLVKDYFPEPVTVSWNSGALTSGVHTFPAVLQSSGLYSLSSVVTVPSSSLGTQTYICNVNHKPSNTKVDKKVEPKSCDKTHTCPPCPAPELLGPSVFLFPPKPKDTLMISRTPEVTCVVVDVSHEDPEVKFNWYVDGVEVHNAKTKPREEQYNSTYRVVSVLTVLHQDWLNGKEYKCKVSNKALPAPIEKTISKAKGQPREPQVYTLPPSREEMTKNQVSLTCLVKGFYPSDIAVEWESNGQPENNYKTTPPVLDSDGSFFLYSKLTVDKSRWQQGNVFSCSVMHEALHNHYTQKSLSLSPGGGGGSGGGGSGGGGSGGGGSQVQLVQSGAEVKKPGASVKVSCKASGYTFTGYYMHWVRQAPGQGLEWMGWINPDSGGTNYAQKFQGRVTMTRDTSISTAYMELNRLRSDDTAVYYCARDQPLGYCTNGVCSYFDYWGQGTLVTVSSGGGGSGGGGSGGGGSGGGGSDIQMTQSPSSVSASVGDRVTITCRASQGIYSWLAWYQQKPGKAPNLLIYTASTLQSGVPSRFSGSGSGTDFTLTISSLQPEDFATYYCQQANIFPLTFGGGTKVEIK
# light: B1 light
# notes: Ly076 HC (IgG1 mutated Fc)-Ly253 scFv VH-VL + Ly076 LC
# B4: Ly817 (bispecific antibody, human IgG1, kappa)
# heavy: QVTLKESGPALVKPTQTLTLTCTFSGFSLSTSGTCVSWIRQPPGKALEWLATICWEDSKGYNPSLKSRLTISKDTSKNQAVLTMTNMDPVDTATYYCARREDSGYFWFPYWGQGTLVTVSSASTKGPSVFPLAPSSKSTSGGTAALGCLVKDYFPEPVTVSWNSGALTSGVHTFPAVLQSSGLYSLSSVVTVPSSSLGTQTYICNVNHKPSNTKVDKKVEPKSCDKTHTCPPCPAPELLGPSVFLFPPKPKDTLMISRTPEVTCVVVDVSHEDPEVKFNWYVDGVEVHNAKTKPREEQYNSTYRVVSVLTVLHQDWLNGKEYKCKVSNKALPAPIEKTISKAKGQPREPQVYTLPPSREEMTKNQVSLTCLVKGFYPSDIAVEWESNGQPENNYKTTPPVLDSDGSFFLYSKLTVDKSRWQQGNVFSCSVMHEALHNHYTQKSLSLSPGK
# light: NIQMTQSPSSLSASVGDRVTITCKAGQNVNNYLAWYQQKPGKAPKVLIFNANSLQTGVPSRFSGSGSGTDFTLTISSLQPEDFATYYCQQYNSWPTFGGGTKVEIKRTVAAPSVFIFPPSDEQLKSGTASVVCLLNNFYPREAKVQWKVDNALQSGNSQESVTEQDSKDSTYSLSSTLTLSKADYEKHKVYACEVTHQGLSSPVTKSFNRGECGGGGSGGGGSGGGGSGGGGSDIQMTQSPSSLSASVGDRVTITCKASQNIYIYLNWYQQKPGKAPKLLIYNTNNLQTGVPSRFSGSGSGTDFTLTISSLQPEDFATYYCLQHSSRRTFGGGTKVEIKGGGGSGGGGSGGGGSGGGGSQVQLVESGGGLVQPGGSLKLSCATSGFNFNDYFMNWVRQASGKGLEWVGQIRNKNYNYATYYTESLEGRVTISRDDSKNTAYLQMNSLKTEDTAVYYCTSYYYDGFADYFDYWGQGTTVTVSS
# notes: Ly516 HC (IgG1 mutated Fc) + Ly516 LC-TM740 scFv VL-VH
# B5: Ly818 (bispecific antibody, human IgG1, kappa)
# heavy: B4 heavy
# light: NIQMTQSPSSLSASVGDRVTITCKAGQNVNNYLAWYQQKPGKAPKVLIFNANSLQTGVPSRFSGSGSGTDFTLTISSLQPEDFATYYCQQYNSWPTFGGGTKVEIKRTVAAPSVFIFPPSDEQLKSGTASVVCLLNNFYPREAKVQWKVDNALQSGNSQESVTEQDSKDSTYSLSSTLTLSKADYEKHKVYACEVTHQGLSSPVTKSFNRGECGGGGSGGGGSGGGGSGGGGSQVQLVESGGGLVQPGGSLKLSCATSGFNFNDYFMNWVRQASGKGLEWVGQIRNKNYNYATYYTESLEGRVTISRDDSKNTAYLQMNSLKTEDTAVYYCTSYYYDGFADYFDYWGQGTTVTVSSGGGGSGGGGSGGGGSGGGGSDIQMTQSPSSLSASVGDRVTITCKASQNIYIYLNWYQQKPGKAPKLLIYNTNNLQTGVPSRFSGSGSGTDFTLTISSLQPEDFATYYCLQHSSRRTFGGGTKVEIK
# notes: Ly516 HC (IgG1 mutated Fc) + Ly516 LC-TM740 scFv VH-VL
# B6: Ly819 (bispecific antibody, human IgG1, kappa)
# heavy: B4 heavy
# light: NIQMTQSPSSLSASVGDRVTITCKAGQNVNNYLAWYQQKPGKAPKVLIFNANSLQTGVPSRFSGSGSGTDFTLTISSLQPEDFATYYCQQYNSWPTFGGGTKVEIKRTVAAPSVFIFPPSDEQLKSGTASVVCLLNNFYPREAKVQWKVDNALQSGNSQESVTEQDSKDSTYSLSSTLTLSKADYEKHKVYACEVTHQGLSSPVTKSFNRGECGGGGSGGGGSGGGGSGGGGSDIQMTQSPSSLSASVGDRVTITCLASEDISNDLAWYQQKPGKAPKLLIYFVDRLLDGVPSRFSGSGSGTDFTLTISSLQPEDFATYYCQQSYKYPPTFGQGTKLEIKGGGGSGGGGSGGGGSGGGGSEVQLVESGGGLVQPGGSLRLSCAASGFTFTNYGLHWVRQAPGKGLEWVSSISPSGGVTYYRDSVKGRFTISRDNSKNTLYLQMNSLRAEDTAVYYCAKPFLGWGGANWIAHWGQGTLVTVSS
# notes: Ly516 HC (IgG1 mutated Fc) + Ly516 LC-TM559 scFv VL-VH
# B7: Ly820 (bispecific antibody, human IgG1, kappa)
# heavy: B4 heavy
# light: NIQMTQSPSSLSASVGDRVTITCKAGQNVNNYLAWYQQKPGKAPKVLIFNANSLQTGVPSRFSGSGSGTDFTLTISSLQPEDFATYYCQQYNSWPTFGGGTKVEIKRTVAAPSVFIFPPSDEQLKSGTASVVCLLNNFYPREAKVQWKVDNALQSGNSQESVTEQDSKDSTYSLSSTLTLSKADYEKHKVYACEVTHQGLSSPVTKSFNRGECGGGGSGGGGSGGGGSGGGGSEVQLVESGGGLVQPGGSLRLSCAASGFTFTNYGLHWVRQAPGKGLEWVSSISPSGGVTYYRDSVKGRFTISRDNSKNTLYLQMNSLRAEDTAVYYCAKPFLGWGGANWIAHWGQGTLVTVSSGGGGSGGGGSGGGGSGGGGSDIQMTQSPSSLSASVGDRVTITCLASEDISNDLAWYQQKPGKAPKLLIYFVDRLLDGVPSRFSGSGSGTDFTLTISSLQPEDFATYYCQQSYKYPPTFGQGTKLEIK
# notes: Ly516 HC (IgG1 mutated Fc) + Ly516 LC-TM559 scFv VH-VL
# B8: Ly474 (bispecific antibody, human IgG1, kappa)
# heavy: EVQLVESGGDLVKPGGSLKLSCAASGFTFSSYGMSWVRQTPDKRLEWVAAISTGGSYTYYPDSVKGRFTISRDTATNTLYLQMSTLKSEDTAMYYCTRRGATGSWFAYWGQGTLVTVSAASTKGPSVFPLAPSSKSTSGGTAALGCLVKDYFPEPVTVSWNSGALTSGVHTFPAVLQSSGLYSLSSVVTVPSSSLGTQTYICNVNHKPSNTKVDKKVEPKSCDKTHTCPPCPAPELLGPSVFLFPPKPKDTLMISRTPEVTCVVVDVSHEDPEVKFNWYVDGVEVHNAKTKPREEQYNSTYRVVSVLTVLHQDWLNGKEYKCKVSNKALPAPIEKTISKAKGQPREPQVYTLPPSREEMTKNQVSLTCLVKGFYPSDIAVEWESNGQPENNYKTTPPVLDSDGSFFLYSKLTVDKSRWQQGNVFSCSVMHEALHNHYTQKSLSLSPGGGGGSGGGGSGGGGSGGGGSDIQMTQSPSSLSASVGDRVTITCKASQNIYIYLNWYQQKPGKAPKLLIYNTNNLQTGVPSRFSGSGSGTDFTLTISSLQPEDFATYYCLQHSSRRTFGGGTKVEIKGGGGSGGGGSGGGGSGGGGSQVQLVESGGGLVQPGGSLKLSCATSGFNFNDYFMNWVRQASGKGLEWVGQIRNKNYNYATYYTESLEGRVTISRDDSKNTAYLQMNSLKTEDTAVYYCTSYYYDGFADYFDYWGQGTTVTVSS
# light: DILMTQSPSSMSVSLGDTVSITCHASQGINNNIGWLQRKPGKSFKGLIYHGTNLEDGVPSRFSGSGSGADYSLTISSLESEDFADYYCVQYVQFPRTFGGGTKLEIKRTVAAPSVFIFPPSDEQLKSGTASVVCLLNNFYPREAKVQWKVDNALQSGNSQESVTEQDSKDSTYSLSSTLTLSKADYEKHKVYACEVTHQGLSSPVTKSFNRGEC
# notes: Ly361 HC (IgG1 mutated Fc)-TM740 scFv VL-VH + Ly361 LC
# Biological target: T2, Ly090 (human CD40 ECD protein with His tag) (human, UniProt P25942 21-193)
# T2 construct: extracellular domain; also called human CD40 ECD protein (His tag); recombinant human CD40; not shown: His tag
# T2 sequence (P25942 21-193): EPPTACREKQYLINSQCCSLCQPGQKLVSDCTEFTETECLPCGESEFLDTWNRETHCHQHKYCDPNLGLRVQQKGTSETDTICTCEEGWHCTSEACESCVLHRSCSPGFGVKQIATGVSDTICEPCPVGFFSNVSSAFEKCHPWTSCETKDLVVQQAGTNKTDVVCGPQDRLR
# Test: bridging ELISA, coated CD40 ECD-His, soluble PD-L1 ECD-mFc
# Description: Exemplary anti-PD-L1/CD40 bi-specific antibodies were analyzed by ELISA for their simultaneous binding to recombinant human PD-L1 and human CD40. Briefly, Ly090 (human CD40 ECD protein with His tag) was diluted and coated onto an ELISA plate with a volume of 100 μL/well by incubation at 4° C. overnight. The next day, the plate was blocked by PBST-BSA buffer, then serially diluted samples of anti-PD-L1/CD40 bi-specific antibodies were pipetted into appropriate wells at 50 μL/well, and the plate was incubated for 1 h followed by Washing. Human PD-L1 ECD protein (mouse IgG2a Fc tag) was added into the plate at 50 μL/well. After 1-hour incubation at room temperature, HRP-conjugated anti-Mouse IgG, Fc G2a antibody was added into the plate at 100 μL/well. The plate was incubated for 1 hour at room temperature followed by washing. TMB substrate solution was added at 100 μL/well and the color development was stopped by adding 100 uL/well Stop Solution (2N H₂SO₄). Absorbance at 450 nm and 620 nm was read by Tecan F200 Pro plate reader. GraphPad 7.0, “[Agonist] vs. response—Variable slope (four parameters)” was used to plot the binding data and calculate binding EC50 values.
row,Binder,binding result
1,B1,binds
2,B2,binds
3,B3,binds

# Biological target: T3, human CD40 expressed on CHO cells (human, UniProt P25942 21-277)
# T3 construct: whole, on cells; also used for the reporter cells over-expressing human CD40; also called cellular CD40; CHO-CD40 cells
# T3 sequence (P25942 21-277): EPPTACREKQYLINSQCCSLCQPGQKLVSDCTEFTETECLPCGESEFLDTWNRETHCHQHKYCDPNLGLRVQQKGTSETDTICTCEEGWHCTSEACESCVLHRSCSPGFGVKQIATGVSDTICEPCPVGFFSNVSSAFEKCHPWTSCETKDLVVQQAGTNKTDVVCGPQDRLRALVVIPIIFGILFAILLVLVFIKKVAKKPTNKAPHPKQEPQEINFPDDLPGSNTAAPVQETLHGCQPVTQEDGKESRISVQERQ
# Test: FACS, CHO cells
row,Binder,binding result
1,B4,binds
2,B5,binds
3,B6,binds
4,B7,binds
5,B1,binds
6,B2,binds
7,B3,binds
8,B8,binds

# Biological target: T4, human PD-1 expressed on CHO cells (human, UniProt Q15116 25-288)
# T4 construct: whole, on cells; also used for human PD-1 on Jurkat reporter cells; also called Jurkat/NFkB-Luci/PD-1 cells
# T4 sequence (Q15116 25-288): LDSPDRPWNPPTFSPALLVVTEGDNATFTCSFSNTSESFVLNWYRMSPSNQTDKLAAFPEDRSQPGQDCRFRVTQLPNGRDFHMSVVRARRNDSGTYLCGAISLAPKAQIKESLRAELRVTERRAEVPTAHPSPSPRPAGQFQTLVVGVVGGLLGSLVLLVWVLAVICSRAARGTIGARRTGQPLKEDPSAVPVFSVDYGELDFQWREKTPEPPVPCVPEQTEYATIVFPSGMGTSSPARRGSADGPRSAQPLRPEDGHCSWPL
# Test: FACS, CHO cells
row,Binder,binding result
1,B4,binds
2,B5,binds
3,B6,binds
4,B7,binds

# Biological target: T1, human B7H4 expressed on CHO cells
# Test: FACS, CHO cells
row,Binder,binding result
1,B8,binds
